According to IntAct's records for PubMed 18676636:

B1: Forkhead box protein C1 (Homo sapiens), Q12948 (parent)
chain: MQARYSVSSPNSLGVVPYLGGEQSYYRAAAAAAGGGYTAMPAPMSVYSHPAHAEQYPGGMARAYGPYTPQPQPKDMVKPPYSYIALITMAIQNAPDKKITLNGIYQFIMDRFPFYRDNKQGWQNSIRHNLSLNECFVKVPRDDKKPGKGSYWTLDPDSYNMFENGSFLRRRRRFKKKDAVKDKEEKDRLHLKEPPPPGRQPPPAPPEQADGNAPGPQPPPVRIQDIKTENGTCPSPPQPLSPAAALGSGSAAAVPKIESPDSSSSSLSSGSSPPGSLPSARPLSLDGADSAPPPPAPSAPPPHHSQGFSVDNIMTSLRGSPQSAAAELSSGLLASAAASSRAGIAPPLALGAYSPGQSSLYSSPCSQTSSAGSSGGGGGGAGAAGGAGGAGTYHCNLQAMSLYAAGERGGHLQGAPGGAGGSAVDDPLPDYSLPPVTSSSSSSLSHGGGGGGGGGGQEAGHHPAAHQGRLTSWYLNQAGGDLGHLASAAAAAAAAGYPGQQQNFHSVREMFESQRIGLNNSPVNGNSSCQMAFPSSQSLYRTSGAFVYDCSKF

Variants of: B1
Settings: with C1QBP

Row | Variant | effect of a mutation on the interaction
1 | MQARYSVSSPNSLGVVPYLGGEQSYYRAAAAAAGGGYTAMPAPMSVYSHPAHAEQYPGGMARAYGPYTPQPQPKDMVKPPYSYIALITMAIQNAPDKKITLNGIYQFIMDRSPFYRDNKQGWQNSIRHNLSLNECFVKVPRDDKKPGKGSYWTLDPDSYNMFENGSFLRRRRRFKKKDAVKDKEEKDRLHLKEPPPPGRQPPPAPPEQADGNAPGPQPPPVRIQDIKTENGTCPSPPQPLSPAAALGSGSAAAVPKIESPDSSSSSLSSGSSPPGSLPSARPLSLDGADSAPPPPAPSAPPPHHSQGFSVDNIMTSLRGSPQSAAAELSSGLLASAAASSRAGIAPPLALGAYSPGQSSLYSSPCSQTSSAGSSGGGGGGAGAAGGAGGAGTYHCNLQAMSLYAAGERGGHLQGAPGGAGGSAVDDPLPDYSLPPVTSSSSSSLSHGGGGGGGGGGQEAGHHPAAHQGRLTSWYLNQAGGDLGHLASAAAAAAAAGYPGQQQNFHSVREMFESQRIGLNNSPVNGNSSCQMAFPSSQSLYRTSGAFVYDCSKF [F112S] | disrupting interaction
